Reference: the RNAGym collection of RNA variant scans (doi:10.7554/elife.90254)

B1: OR4K15 (parent)
chain: GUUAACGGUCAUAGGCCAUGGAAACUAGGAGCACCAUUUCGCUGCCAGUGAAGAAAUGAACAAAGAAAAUCUGGGCCAGGCAGGCAUCAAAAGAAAUAGUCUUGCGCUCAACCAGAAAGUCUGUAAUCAUUUUAAGGGUA

Variants of: B1
Experiment: self-cleavage, relative activity (ratio to wild type); higher = more cleavage; in vitro, sequencing; the parent is a self-cleaving ribozyme

Variant | self-cleavage
GUUAACGGUCAUAGGCCAUGGAAACUAGGAGCACCAUCUCGCUGCCAGUGAAGAAAUGAACAAAGAAAAUCUGGGCCAGGCAGGCAUCAAAAGAAAUAGUCUUGCGCUCAACCAGAAAGUCUGUAAUCAUUUCAAGGGUA | 0.93
GUUAACGGUCAUAGGCCAUGGAAACUAGGAGCACCAUCUCGCUGCCAGUGAAGAAAUGAACAAAGAAAAUCUGGGCCAGGCAGACAUCAAAAGAAAUAGUCUUGCGCUCAACCAGAAAGUCUGUAAUCAUUUUAAGGGUA | 2.05
GUUAACGGUCAUAGGCCAUGGAAACUAGGAGCACCAUCUCGCUGCCAGUGAAGAAAUGAACAAAGAAAAUCUGGGCCAGGCAGGCAUCAAAAGAAAUAGUCUUGCGCUCAACCAGAAAGUCUGUAAUCAUUUUAUGGGUA | 1.86
GUUAACGGUCAUAGGCCAUGGAAACUAGGAGCACCAUCUCGCUGCCAGUGAAGAAAUGAACAAAGAAAAUCUGGGCCAGGCAGGCAUCAAAAGAAAUAGUCUUGCGCUCAACCAGAAAGUCUGUAAUCAUUUUAGGGGUA | 1.9
GUUAACGGUCAUAGGCCAUGGAAACUAGGAGCACCAUCUCGCUGCCAGUGAAGAAAUGAACAAAGAAAAUCUGGGCCAGGCAGGCAUCAAAAGAAAUAGUCUUGCGCUCAACCAGAAAGUCUGUAAUCAUUCUAAGGGUA | 1.64
GUUAACGGUCAUAGGCCAUGGAAACUAGGAGCACCAUGUCGCUGCCAGUGAAGAAAUGAACAAAGAAAAUCUGGGCCAGGCAGGCAUCAAAAGAAAUAGUCUUGCGCUCAACCAGGAAGUCUGUAAUCAUUUUAAGGGUA | 1.67
GUUAACGGUCAUAGGCCAUGGAAACUAGGAGCACCAUCUCGCUGCCAGUGAAGAAAUGAACAAAGAAAAUCUGGGCCAGGCAGGCAUCAAAAGAAAUAGUUUUGCGCUCAACCAGAAAGUCUGUAAUCAUUUUAAGGGUA | 0.35
GUUAACGGUCAUAGGCCAUGGAAACUAGGAGCACCAUCUCGCUGCCAGUGAAGAAAUGAACAAAGAAAAUCUGGGCCAGGCAGGCAUCAAAAGAAAUAGUCUUGCGCUCAACCAGAAAGUCUGUAAUCGUUUUAAGGGUA | 1.31
GUUAACGGUCAUAGGCCAUGGAAACUAGGAGCACCAUCUCGCUGCCAGUGAAGAAAUGAACAAAGAAAAUCUGGGCCAGGCAGGCAUCAAAAGAAAUAGUCUUGCGCUCAACCAGAAAGUCUGUAAUCUUUUUAAGGGUA | 1.21
GUUAACGGUCAUAGGCCAUGGAAACUAGGAGCACCAUCUCGCUGCCAGUGAAGAAAUGAACAAAGAAAAUCUGGGCCAAGCAGGCAUCAAAAGAAAUAGUCUUGCGCUCAACCAGAAAGUCUGUAAUCAUUUUAAGGGUA | 0.22
GUUAACGGUCAUAGGCCAUGGAAACUAGGAGCACCAUGUCGCUGCCAGUGAAGAAAUGAACAAAGAAAAUCUGGGCCAGGCAGGCAUCAAAAGAAGUAGUCUUGCGCUCAACCAGAAAGUCUGUAAUCAUUUUAAGGGUA | 0.69
GUUAACGGUCAUAGGCCAUGGAAACUAGGAGCACCAUCUCGCUGCCAGUGAAGAAAUGAACAAAGAAAAUCUGGGCCAGGCAGGCAUCAAAAGAAAUAGUCUUGCGCUCAACCAGAAAGCCUGUAAUCAUUUUAAGGGUA | 1.06
GUUAACGGUCAUAGGCCAUGGAAACUAGGAGCACCAUCUCGCUGCCAGUGAAGAAAUGAACAAAGAAAAUCUGGGCCAGGCAGGCAUUAAAAGAAAUAGUCUUGCGCUCAACCAGAAAGUCUGUAAUCAUUUUAAGGGUA | 2.51
GUUAACGGUCAUAGGCCAUGGAAACUAGGAGCACCAUCUCGCUGCCAGUGAAGAAAUGAACAAAGAAAAUCUGGGCCAGGCAGGCAUCAAAAGAAAUAGUCUCGCGCUCAACCAGAAAGUCUGUAAUCAUUUUAAGGGUA | 1.18
GUUAACGGUCAUAGGCCAUGGAAACUAGGAGCACCAUCUCGCUGCCAGUGAAGAAAUGAACAAAGAAAAUCUGGGCCAGGCAGGCAUCAAAAGAAAUAGUCUAGCGCUCAACCAGAAAGUCUGUAAUCAUUUUAAGGGUA | 0.64
GUUAACGGUCAUAGGCCAUGGAAACUAGGAGCACCAUCUCGCUGCCAGUGAAGAAAUGAACAAAGAAAAUCUGGGCCAGGCAGGCAUCAAAAGAAAUAGUCUUGCGCUCAACCAGAAAGUCUGAAAUCAUUUUAAGGGUA | 0.81
GUUAACGGUCAUAGGCCAUGGAAACUAGGAGCACCAUGUCGCUGCCAGUGAAGAAAUGAACAAAGAAAAUCUGGGCCAGGCAGGCAUCAAAAGAAAUAGUCUUGCGCUCAACCAGAAAGUCUGUAAUCAUUUUAAGGGUA | 1.59
GUUAACGGUCAUAGGCCAUGGAAACUAGGAGCACCAUCUCGCUGCCAGUGAAGAAAUGAACAAAGAAAAUCUGGGCCAGGCAGGCAUCAAAAGAAAUAGUCUUGCGCUCAACCAGAAAGUCUGUAAUCAUUUUAAGUGUA | 2.1
GUUAACGGUCAUAGGCCAUGGAAACUAGGAGCACCAUCUCGCUGCCAGUGAAGAAAUGAACAAAGAAAAUCUGGGCCAGGCAGGCAUCAAAAGAAAUAGUCUUGCGCUCAACCAGAAAGUCUGUAAUCAUUUUAAGGGUG | 2.16
GUUAACGGUCAUAGGCCAUGGAAACUAGGAGCACCAUCUCUCUGCCAGUGAAGAAAUGAACAAAGAAAAUCUGGGCCAGGCAGGCAUCAAAAGAAAUAGUCUUGCGCUCAACCAGAAAGUCUGUAAUCAUUUUAAGGGUA | 1.46
GUUAACGGUCAUAGGCCAUGGAAACUAGGAGCACCAUCUCGCUGCCAGUGAAGAAAUGAACAAAGAAAAUCUGGGCCAGGCAGGCAUCAAAAGAAAUAGUCUUGCGCUUAACCAGAAAGUCUGUAAUCAUUUUAAGGGUA | 0.26

Variant | self-cleavage
GUUAACGGUCAUAGGCCAUGGAAACUAGGAGCACCAUCUCGCUGCCAGUGAAGAAAUGAACAAAGAAAAUCUGGGCCAGGCAGGCAUCAAAAGAAAUAGCCUUGCGCUCAACCAGAAAGUCUGUAAUCAUUUUAAGGGUA | 2.28
GUUAACGGUCAUAGGCCAUGGAAACUAGGAGCACCAUCCCGCUGCCAGUGAAGAAAUGAACAAAGAAAAUCUGGGCCAGGCAGGCAUCAAAAGAAAUAGUCUUGCGCUCAACCAGAAAGUCUGUAAUCAUUUUAAGGGUA | 1.64
GUUAACGGUCAUAGGCCAUGGAAACUAGGAGCACCAUGUCGCUGCCAGUGAAGAAAUGAACAAAGAAAAUCUGGGCCAGGCAGGCAUCAAAAGAAAUAGUCUUGCGUUCAACCAGAAAGUCUGUAAUCAUUUUAAGGGUA | 0.02
GUUAACGGUCAUAGGCCAUGGAAACUAGGAGCACCAUCUCGCAGCCAGUGAAGAAAUGAACAAAGAAAAUCUGGGCCAGGCAGGCAUCAAAAGAAAUAGUCUUGCGCUCAACCAGAAAGUCUGUAAUCAUUUUAAGGGUA | 2.13
GUUAACGGUCAUAGGCCAUGGAAACUAGGAGCACCAUGUCGCUGCCAGUGAAGAAAUGAACCAAGAAAAUCUGGGCCAGGCAGGCAUCAAAAGAAAUAGUCUUGCGCUCAACCAGAAAGUCUGUAAUCAUUUUAAGGGUA | 0.78
GUUAACGGUCAUAGGCCAUGGAAACUAGGAGCACCAUGUCGCUGCCAGUGAAGGAAUGAACAAAGAAAAUCUGGGCCAGGCAGGCAUCAAAAGAAAUAGUCUUGCGCUCAACCAGAAAGUCUGUAAUCAUUUUAAGGGUA | 1.38
GUUAACGGUCAUAGGCCAUGGAAACUAGGAGCACCAUCUCGCUGCCAGUGAAGAAAUGAACAAAGAAAAUCUGGGCCAGGCAAGCAUCAAAAGAAAUAGUCUUGCGCUCAACCAGAAAGUCUGUAAUCAUUUUAAGGGUA | 2.15
GUUAACGGUCAUAGGCCAUGGAAACUAGGAGCACCAUCUCGCUGCCAGUGAAGAAAUGAACAAAGAAAAUCUGGGCCAGGCAUGCAUCAAAAGAAAUAGUCUUGCGCUCAACCAGAAAGUCUGUAAUCAUUUUAAGGGUA | 0.43
GUUAACGGUCAUAGGCCAUGGAAACUAGGAGCACCAUCUCGCUGCCAGUGAAGAAAUGAACAAAGAAAAUCUGGGCCAGGCAGGCAUCAAAAGAAAUAGUCUUGCGCUCAACCAGAAAGUCUGUAUUCAUUUUAAGGGUA | 1.12
GUUAACGGUCAUAGGCCAUGGAAACUAGGAGCACCAUCUCGCUGCCAGUGAAGAAAAGAACAAAGAAAAUCUGGGCCAGGCAGGCAUCAAAAGAAAUAGUCUUGCGCUCAACCAGAAAGUCUGUAAUCAUUUUAAGGGUA | 1.48
GUUAACGGUCAUAGGCCAUGGAAACUAGGAGCACCAUCUCGCUGCCAGUGAAGAAACGAACAAAGAAAAUCUGGGCCAGGCAGGCAUCAAAAGAAAUAGUCUUGCGCUCAACCAGAAAGUCUGUAAUCAUUUUAAGGGUA | 0.83
GUUAACGGUCAUAGGCCAUGGAAACUAGGAGCACCAUGUCGCUGCCAGUGAAGAAAUGAACAAAGAAAAUCUGGGCCAGGCAGGCAUCAAAAGAGAUAGUCUUGCGCUCAACCAGAAAGUCUGUAAUCAUUUUAAGGGUA | 2.17
GUUAACGGUCAUAGGCCAUGGAAACUAGGAGCACCAUCUCGCUGCCAGUGAAGAAAUGAACAAAGAAAAUCUGGGCCAGGCAGGCAUCAAAAGAAAUAGUCUUGCGCACAACCAGAAAGUCUGUAAUCAUUUUAAGGGUA | 0.03
GUUAACGGUCAUAGGCCAUGGAAACUAGGAGCACCAUCUCGCUGCCAGUGAAGAAAUGAAUAAAGAAAAUCUGGGCCAGGCAGGCAUCAAAAGAAAUAGUCUUGCGCUCAACCAGAAAGUCUGUAAUCAUUUUAAGGGUA | 1.86
GUUAACGGUCAUAGGCCAUGGAAACUAGGAGCACCAUCUCGCUGCCAGUGAAGAAAUGAACAAAGAAAACCUGGGCCAGGCAGGCAUCAAAAGAAAUAGUCUUGCGCUCAACCAGAAAGUCUGUAAUCAUUUUAAGGGUA | 1.05
GUUAACGGUCAUAGGCCAUGGAAACUAGGAGCACCAUCUCGCUGCCAGUGAAGAAAUGAACAAAGAAAAUCUGGGCCAGGCAGGCAUCAAAAGAAAUAGUCUUGCGCUCAACCAGAAAGUCUGUAAACAUUUUAAGGGUA | 2.78
GUUAACGGUCAUAGGCCAUGGAAACUAGGAGCACCAUCUCGCUGCCAGUGAAGAAAUGAACAAAGAAAAUCUGGGCCAGGCAGGCAUCAAAAGAAAUAGUCUUGUGCUCAACCAGAAAGUCUGUAAUCAUUUUAAGGGUA | 0.19
GUUAACGGUCAUAGGCCAUGGAAACUAGGAGCACCAUCUCGCUGCCAGUGAAGAAAUGAACAAAGAAAAUCUGGGCCAGGCAGGCAUCAAAAGAAAUAGUCUUGCGCUCAACCAGAAAGUCUGUAAUCAUUUUAAGGGCA | 0.91
GUUAACGGUCAUAGGCCAUGGAAACUAGGAGCACCAUCUCGCUGCCAGUGAAGAAAUGAACAAAGAAAAUCUGGGCCAGGCAGGCAUCAAAAGAAAUAGUCUUGCGCUCAACCAGAAAGUCUGUAAUCAUUUUAAGGGAA | 1.75
GUUAACGGUCAUAGGCCAUGGAAACUAGGAGCACCAUCUCGCUGCCAGUGAAGAAAUGAACAAAGAAAAUCUGGGCCAGGCAGGCAUCAAAAGAAAUAGUCUUGCGCUCAACCAGAAAGUCUGUAAUCAUUUUGAGGGUA | 1.74
